Results on 46 molecules are retold here after patent publication US20040023887A1 (published 2004).

B1: NNRPγ-4-A1-IR (peptide)
peptide: IIGGFYSYFNSVLRLGT
notes: on phage
B2: H2CA-4-F6-IGFR (peptide)
peptide: AVRATRFDEAFYDWFVRQISDGQGNK
notes: on phage
B3: 20E2A-4-F11-IGFR (peptide)
peptide: QGGSASFYDAIDRLLRMRIGG
notes: on phage
B4: 20E23-4-H3-IGFR (peptide)
peptide: KLHNLMFYYGLQRLVWGAGLG
notes: on phage
B5: B6Hα-3-F11-IR (peptide)
peptide: RGMKEEVLVGGSTDPFYHKLSELLQGS
notes: on phage
B6: 20C-3-F6-IGFR (peptide)
peptide: DRDFCRFYERLTALVGGQVDGGWPC
notes: on phage
B7: 20E2B-2-B7-IGFR (peptide)
peptide: LSSDGQFYRALNLLLQGSAGR
notes: on phage
B8: 20E2B-3-C8-IGFR (peptide)
peptide: QPAPDGFYSALMKLIGRGGVS
notes: on phage
B9: 20E2Bβ-4-G7-IR (peptide)
peptide: LQPCSGFYECIERLIGVKLSG
modifications: not fully specified (bridges); cysteine pairing not given here
notes: on phage
B10: B6Ha-3-E9-IR (peptide)
peptide: RCEEKQAEVGPSSDPFYHKMSELLGCR
notes: on phage
B11: H2CA-4-E8-IGFR (peptide)
peptide: SACQFDCHENFYDWFARQVSGGAAYG
notes: on phage
B12: 20E2B-3-E3-IGFR (peptide)
peptide: PDLHKGFYAQLAQLIRGQLLS
notes: on phage
B13: 20E2B-2-28-IGFR (peptide)
peptide: IWATGDFYRLLSQLVMGRVGT
notes: on phage
B14: 20E2B-3-D12-IGFR (peptide)
peptide: QGNVLDFYGWIGRLLAKQGSD
notes: on phage
B15: 20E2B-2-B2-IGFR (peptide)
peptide: PGTDLGFYQALRCVVIQGACD
notes: on phage
B16: 20E2B-4-H8-IGFR (peptide)
peptide: PAGPCGFYCGLGLLLHGDQSP
notes: on phage
B17: 20E2B-1-A6-IGFR (peptide)
peptide: GVRAMSFYDALVSVLGLGPSG
notes: on phage
B18: 20E2B-4-F8-IGFR (peptide)
peptide: PVGVQGFYEGLSRLVLGRGGW
notes: on phage
B19: 20E2B-3-D8-IGFR (peptide)
peptide: GGTEVDFYRALERLVRGQLGL
notes: on phage
B20: 20E2B-1-A8-IGFR (peptide)
peptide: TLRSPTFYDWLEMVLTHGQGG
notes: on phage
B21: R20α-4-20A12-IR (peptide)
peptide: RLFYCGIQALGANLGYSGCV
notes: on phage
B22: 20C-3-A1-IGFR (peptide)
peptide: SSYGCDGFYLMLFSLGLVASQELEC
notes: on phage
B23: 20E22-4-H12-IGFR (peptide)
peptide: YSCGDGFYSLLSDLLGGQFRC
notes: on phage
B24: H2CA-4-F5-IGFR (peptide)
peptide: VGYQGQGDENFYDWFIRQVSGRLGVQ
notes: on phage
B25: 20C-3-E4-IGFR (peptide)
peptide: FFYRCLSRLLGGQLGSRLGLSCIGD
notes: on phage
B26: 20E2B-3-C4-IGFR (peptide)
peptide: ASSASGFYELLQRLAGLGLEV
notes: on phage
B27: B6Hα-2-C10-IR (peptide)
peptide: SGAKVIVVTGDSGDPFYHKLSELLQGS
notes: on phage
B28: 20E2B-3-C2-IGFR (peptide)
peptide: GNGDGMFYQLLSLLVGRDMHV
notes: on phage
B29: 20E2B-3-E8-IGFR (peptide)
peptide: LRIANLFYQRLWDLAFGGGG
notes: on phage
B30: 20E2B-3-D4-IGFR (peptide)
peptide: NSRDGGFYLQLERLLGFPVTG
notes: on phage
B31: 20E2B-3-D2-IGFR (peptide)
peptide: IQQELTFYDLLHRLVRSELGS
notes: on phage
B32: 20E2B-3-C6-IGFR (peptide)
peptide: VEGRGLFYDLLRQLLARRQNG
notes: on phage
B33: 20E2B-3-D6-IGFR (peptide)
peptide: DSVGDNFYQLLESLVGGHGVG
notes: on phage
B34: 20E2A-3-C7-ICFR (peptide)
peptide: VGTVAGFYDAIAQLVARASRV
notes: on phage
B35: 20C-3-A4-IGFR (peptide)
peptide: QFYGCLLDLSLGVPSFGWRRRCITA
notes: on phage
B36: 20E2B-3-E12-IGFR (peptide)
peptide: VATSQGFYSGLSELLQGGGNV
notes: on phage
B37: 20E2B-2-B3-IGFR (peptide)
peptide: ICTGQGFYQVLCGLLRGTSAR
notes: on phage
B38: 20E2B-4-G11-IGFR (peptide)
peptide: RQGTGSFYLMLEQLLVGARGP
notes: on phage
B39: 20E2B-4-H9-IGFR (peptide)
peptide: RCQGTGFYTCIQELIGFGDPD
notes: on phage
B40: 20E2B-1-A11-IGFR (peptide)
peptide: RFSTDGFYQYLLALVGGGPVG
notes: on phage
B41: NNRPγ-4-A9-IR (peptide)
peptide: EGSGFYGYFFSLLGLQG
notes: on phage
B42: 20E2B-4-F10-IGFR (peptide)
peptide: AQPCGGFYGLLEQLVGRSVCD
notes: on phage
B43: 20E2B-3-D11-IGFR (peptide)
peptide: LGVTDGFYAALGYLIHGVGQF
notes: on phage
B44: R20α-4-20C11-IR (peptide)
peptide: DRAFYNGLRDLVGAVYGAWD
notes: on phage
B45: R20α-3-20E2-IR (peptide)
peptide: FYDAIDQLVRGSARAGGTRD
notes: on phage
B46: H2CA-4-F11-IGFR (peptide)
peptide: SAAQLFFQESFYDWFLRQVAESSQPN
notes: on phage

No end group written: not given here.

One assay concerns the target T1, soluble IGF-1R (recombinant human IGF-1R extracellular domain, R&D Systems Cat. # 391-GR/CF) (human, UniProt P08069 31-935).
T1 construct: extracellular domain; Bought protein; coated on plates (phage ELISA, TRF) or Eu-labelled (TR-FRET); also called sIGF-1R; rhIGF-1R
The assay is described as follows: phage ELISA.
For B1, the ratio over background came to 10.9 ratio.

Consider B2, for which the ratio over background was 7.3 ratio.

Consider B3, for which the ratio over background amounted to 18.8 ratio.

For B4, the ratio over background was 14.8 ratio.

For the molecule B5, the ratio over background turned out to be 18.7 ratio.

Regarding B6, the ratio over background was determined as 26.1 ratio.

As to B7, the ratio over background was 6.1 ratio.

B8: the ratio over background is 15.6 ratio.

For the molecule B9, the ratio over background came out at 25.2 ratio.

As for B10, the ratio over background was determined as 24.2 ratio.

On to B11, for which the ratio over background is 9.2 ratio.

Consider B12, for which the ratio over background came to 16.3 ratio.

For the molecule B13, the ratio over background worked out at 5.7 ratio.

With B14, the ratio over background turned out to be 6.2 ratio.

As for B15, the ratio over background came out at 4.9 ratio.

In the case of B16, the ratio over background is 5.3 ratio.

For the molecule B17, the ratio over background amounted to 18.1 ratio.

Regarding B18, the ratio over background came out at 7.3 ratio.

Turning to B19, the ratio over background was 17.7 ratio.

B20: the ratio over background worked out at 4.4 ratio.

As for B21, the ratio over background came to 39.9 ratio.

On to B22, for which the ratio over background was 20.8 ratio.

For the molecule B23, the ratio over background was found to be 9.7 ratio.

For the molecule B24, the ratio over background came out at 9.7 ratio.

For B25, the ratio over background was found to be 7.7 ratio.

Consider B26, for which the ratio over background was 20.4 ratio.

With B27, the ratio over background is 5.8 ratio.

In the case of B28, the ratio over background is 8.9 ratio.

Consider B29, for which the ratio over background is 16.7 ratio.

For B30, the ratio over background came out at 7.9 ratio.

Consider B31, for which the ratio over background was 12.4 ratio.

In the case of B32, the ratio over background came to 16.8 ratio.

For B33, the ratio over background came out at 17.8 ratio.

As to B34, the ratio over background amounted to 5.4 ratio.

With B35, the ratio over background is 8.8 ratio.

On to B36, for which the ratio over background came out at 6 ratio.

Consider B37, for which the ratio over background worked out at 5.3 ratio.

Turning to B38, the ratio over background was found to be 4.5 ratio.

In the case of B39, the ratio over background amounted to 5.2 ratio.

Regarding B40, the ratio over background came out at 9.5 ratio.

Consider B41, for which the ratio over background was 10 ratio.

Consider B42, for which the ratio over background was determined as 17.3 ratio.

Consider B43, for which the ratio over background is 12.2 ratio.

As for B44, the ratio over background turned out to be 30.8 ratio.

On to B45, for which the ratio over background was found to be 39.9 ratio.

With B46, the ratio over background stood at 6.8 ratio.

The next assay has as its target T2, soluble human insulin receptor-immunoglobulin heavy chain chimera (human, UniProt P06213 28-956, limits assumed).
T2 construct: extracellular domain; also called sIR-Fc; IR (prepared according to Bass et al., 1996); not shown: immunoglobulin heavy chain constant domains (Bass et al., 1996)
The assay is described as follows: phage ELISA.
In the case of B1, the ratio over background was determined as 1.8 ratio.

Turning to B2, the ratio over background is 1.1 ratio.

As for B3, the ratio over background stood at 1.3 ratio.

With B4, the ratio over background is 1.1 ratio.

Consider B5, for which the ratio over background is 1.6 ratio.

For the molecule B6, the ratio over background was determined as 1.9 ratio.

For the molecule B7, the ratio over background was determined as 0.9 ratio.

Turning to B8, the ratio over background came out at 1.8 ratio.

As to B9, the ratio over background was 1.6 ratio.

As to B10, the ratio over background came to 1.7 ratio.

In the case of B11, the ratio over background was found to be 1 ratio.

Take B12: the ratio over background is 1.3 ratio.

In the case of B13, the ratio over background is 0.8 ratio.

B14: the ratio over background was 0.9 ratio.

On to B15, for which the ratio over background came out at 0.6 ratio.

As to B16, the ratio over background was determined as 0.9 ratio.

B17: the ratio over background came to 1.1 ratio.

As to B18, the ratio over background was 0.8 ratio.

B19: the ratio over background was 1.6 ratio.

Turning to B20, the ratio over background was determined as 0.9 ratio.

Turning to B21, the ratio over background turned out to be 2.4 ratio.

For the molecule B22, the ratio over background stood at 1.5 ratio.

For the molecule B23, the ratio over background came to 0.8 ratio.

As for B24, the ratio over background was 0.8 ratio.

With B25, the ratio over background is 1.3 ratio.

For the molecule B26, the ratio over background is 3.3 ratio.

Regarding B27, the ratio over background amounted to 1.1 ratio.

B28: the ratio over background is 0.6 ratio.

For B29, the ratio over background was 1.5 ratio.

With B30, the ratio over background was 0.8 ratio.

As to B31, the ratio over background stood at 1.1 ratio.

With B32, the ratio over background came to 1.1 ratio.

Regarding B33, the ratio over background amounted to 2.6 ratio.

B34: the ratio over background was 1.1 ratio.

For the molecule B35, the ratio over background was determined as 1.2 ratio.

For B36, the ratio over background was found to be 0.8 ratio.

Turning to B37, the ratio over background came to 0.7 ratio.

For B38, the ratio over background came out at 0.6 ratio.

Take B39: the ratio over background was found to be 0.9 ratio.

In the case of B40, the ratio over background is 1 ratio.

As for B41, the ratio over background was 1.4 ratio.

With B42, the ratio over background was determined as 2.2 ratio.

For B43, the ratio over background was 1.6 ratio.

Turning to B44, the ratio over background came to 3 ratio.

As to B45, the ratio over background is 3.1 ratio.

For the molecule B46, the ratio over background was 1 ratio.
